Experimental data published in patent US10131702B2, “Glucagon-GLP-1-GIP triple agonist compounds” (priority 2013, dated 2018).
Where two headings read alike, the source gives them in different places. Numbered stars: 1 amine (or outer) side, 2 acyl side, 3 side chain; on linkers, the order of the positions; unused ones are H or OH. Square brackets hold non-standard residues; d marks the D form. Side chains are listed from the residue outwards. * marks the point of attachment. C18 diacid = O=C(O)CCCCCCCCCCCCCCCCC(=O)*; γGlu = O=C(O)[C@H](CCC(=O)[*:2])N[*:1]; Stearoyl = CCCCCCCCCCCCCCCCCC(=O)*; Aib = CC(C)(N)C(=O)O

T1: human GIP receptor (human, UniProt P48546 22-466)
T1 sequence: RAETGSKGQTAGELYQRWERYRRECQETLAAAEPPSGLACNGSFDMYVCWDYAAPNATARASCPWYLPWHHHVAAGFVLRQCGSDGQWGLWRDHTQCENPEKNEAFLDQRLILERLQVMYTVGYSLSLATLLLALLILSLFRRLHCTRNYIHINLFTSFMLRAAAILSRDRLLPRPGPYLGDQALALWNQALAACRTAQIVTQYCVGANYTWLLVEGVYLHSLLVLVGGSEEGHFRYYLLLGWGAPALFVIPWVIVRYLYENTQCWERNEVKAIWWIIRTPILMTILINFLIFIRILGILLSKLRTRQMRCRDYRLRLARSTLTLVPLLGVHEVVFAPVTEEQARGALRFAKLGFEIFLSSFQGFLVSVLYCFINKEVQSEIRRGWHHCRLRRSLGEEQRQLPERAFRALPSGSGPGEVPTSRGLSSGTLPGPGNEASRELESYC


Tests used:
Experiment in all cases: cell-based or functional assay
[1] = target: human GIP receptor (human) (UniProt P48546)
[2] = target: human glucagon receptor (human) (UniProt P47871)
human GIP receptor [3] = target: T1, human GIP receptor
[4] = target: T2, human glucagon-like peptide 1 receptor (human, UniProt P43220 24-463)
human glucagon receptor [5] = target: T3, human glucagon receptor (human, UniProt P47871 26-477)
human GIP receptor [6] = target: T1, human GIP receptor; remark: listed apart in the source
[7] = target: T2, human glucagon-like peptide 1 receptor; remark: listed apart in the source
human glucagon receptor [8] = target: T3, human glucagon receptor; remark: listed apart in the source
[9] = target: human glucagon-like peptide 1 receptor (human) (UniProt P43220)
human glucagon-like peptide 1 receptor (human), sequence (P43220 24-463): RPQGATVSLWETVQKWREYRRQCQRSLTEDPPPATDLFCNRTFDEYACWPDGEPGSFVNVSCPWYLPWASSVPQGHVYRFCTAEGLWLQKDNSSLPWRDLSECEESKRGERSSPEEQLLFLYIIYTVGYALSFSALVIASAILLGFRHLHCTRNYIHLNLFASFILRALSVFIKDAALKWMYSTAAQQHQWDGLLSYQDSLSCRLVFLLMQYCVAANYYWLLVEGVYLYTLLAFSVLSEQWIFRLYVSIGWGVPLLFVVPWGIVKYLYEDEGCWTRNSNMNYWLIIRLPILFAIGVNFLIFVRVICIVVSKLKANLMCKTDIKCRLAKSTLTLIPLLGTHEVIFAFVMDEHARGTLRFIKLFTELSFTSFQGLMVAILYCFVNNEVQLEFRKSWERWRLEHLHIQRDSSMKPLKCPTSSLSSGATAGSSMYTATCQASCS

T3 sequence (P47871 26-477): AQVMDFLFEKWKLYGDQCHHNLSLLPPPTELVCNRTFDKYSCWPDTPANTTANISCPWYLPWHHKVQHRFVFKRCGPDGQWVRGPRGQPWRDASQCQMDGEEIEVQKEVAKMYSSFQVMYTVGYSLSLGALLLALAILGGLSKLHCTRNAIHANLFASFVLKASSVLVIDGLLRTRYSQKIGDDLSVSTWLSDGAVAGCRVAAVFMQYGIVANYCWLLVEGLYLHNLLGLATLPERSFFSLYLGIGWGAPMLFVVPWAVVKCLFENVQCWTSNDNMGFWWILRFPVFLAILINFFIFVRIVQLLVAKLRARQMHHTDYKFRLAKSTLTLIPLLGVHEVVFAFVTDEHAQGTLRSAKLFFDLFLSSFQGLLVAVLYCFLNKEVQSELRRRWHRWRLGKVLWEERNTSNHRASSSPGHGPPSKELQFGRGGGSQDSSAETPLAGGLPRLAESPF
human glucagon receptor (human), sequence (P47871 26-477): as above
Exendin-4, sequence (P26349 48-86 limits assumed): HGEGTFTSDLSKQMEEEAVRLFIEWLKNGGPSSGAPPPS

Molecule	EC50 (cAMP induction) [1]	EC50 (cAMP induction) [2]	EC50 (cAMP induction) (human GIP receptor [3])	EC50 (cAMP induction) [4]	EC50 (cAMP induction) (human glucagon receptor [5])	EC50 (cAMP induction) (human GIP receptor [6])	EC50 (cAMP induction) [7]	EC50 (cAMP induction) (human glucagon receptor [8])	EC50 (cAMP induction) [9]
Exendin-4 (from UniProt P26349 48-86) (peptide)	4 pM	> 10000 pM							
YAQGTFTSDYSKALDEKAAKEFVEWLLSA (HELM PEPTIDE1{Y.[Aib].Q.G.T.F.T.S.D.Y.S.K.A.L.D.E.K.A.A.K.E.F.V.E.W.L.L.S.A.[am]}$$$$V2.0; SMILES CC(C)C[C@H](NC(=O)[C@H](C)NC(=O)[C@H](CCCCN)NC(=O)[C@H](CO)NC(=O)[C@H](Cc1ccc(O)cc1)NC(=O)[C@H](CC(=O)O)NC(=O)[C@H](CO)NC(=O)[C@@H](NC(=O)[C@H](Cc1ccccc1)NC(=O)[C@@H](NC(=O)CNC(=O)[C@H](CCC(N)=O)NC(=O)C(C)(C)NC(=O)[C@@H](N)Cc1ccc(O)cc1)[C@@H](C)O)[C@@H](C)O)C(=O)N[C@@H](CC(=O)O)C(=O)N[C@@H](CCC(=O)O)C(=O)N[C@@H](CCCCN)C(=O)N[C@@H](C)C(=O)N[C@@H](C)C(=O)N[C@@H](CCCCN)C(=O)N[C@@H](CCC(=O)O)C(=O)N[C@@H](Cc1ccccc1)C(=O)N[C@H](C(=O)N[C@@H](CCC(=O)O)C(=O)N[C@@H](Cc1c[nH]c2ccccc12)C(=O)N[C@@H](CC(C)C)C(=O)N[C@@H](CC(C)C)C(=O)N[C@@H](CO)C(=O)N[C@@H](C)C(N)=O)C(C)C) [Compound 21]			15 pM	100 pM	100 pM	180 pM	14 pM	100 pM	
YAQGTFTSDYSIYLEKKAAKEFVEWLLSA (HELM PEPTIDE1{Y.[Aib].Q.G.T.F.T.S.D.Y.S.I.Y.L.E.K.K.A.A.K.E.F.V.E.W.L.L.S.A.[am]}|PEPTIDE2{[CCCCCCCCCCCCCCCC(=O)[*:2]].[gGlu]}$PEPTIDE1,PEPTIDE2,16:R3-2:R2$$$V2.0; SMILES CCCCCCCCCCCCCCCC(=O)N[C@@H](CCC(=O)NCCCC[C@H](NC(=O)[C@H](CCC(=O)O)NC(=O)[C@H](CC(C)C)NC(=O)[C@H](Cc1ccc(O)cc1)NC(=O)[C@@H](NC(=O)[C@H](CO)NC(=O)[C@H](Cc1ccc(O)cc1)NC(=O)[C@H](CC(=O)O)NC(=O)[C@H](CO)NC(=O)[C@@H](NC(=O)[C@H](Cc1ccccc1)NC(=O)[C@@H](NC(=O)CNC(=O)[C@H](CCC(N)=O)NC(=O)C(C)(C)NC(=O)[C@@H](N)Cc1ccc(O)cc1)[C@@H](C)O)[C@@H](C)O)[C@@H](C)CC)C(=O)N[C@@H](CCCCN)C(=O)N[C@@H](C)C(=O)N[C@@H](C)C(=O)N[C@@H](CCCCN)C(=O)N[C@@H](CCC(=O)O)C(=O)N[C@@H](Cc1ccccc1)C(=O)N[C@H](C(=O)N[C@@H](CCC(=O)O)C(=O)N[C@@H](Cc1c[nH]c2ccccc12)C(=O)N[C@@H](CC(C)C)C(=O)N[C@@H](CC(C)C)C(=O)N[C@@H](CO)C(=O)N[C@@H](C)C(N)=O)C(C)C)C(=O)O) [Compound 24]			100 pM	91 pM	280 pM	100 pM	91 pM	280 pM	
H-Y[Aib]QGTFTSDLSIALEKK([Peg3-Peg3-γGlu-Stearoyl])AQRAFVEWLLAQK-NH2 [Compound 48]	13 pM	190 pM							13 pM
YAQGTFTSDYSIYLEKKAAKEFVEWLLSA (HELM PEPTIDE1{Y.[Aib].Q.G.T.F.T.S.D.Y.S.I.Y.L.E.K.K.A.A.K.E.F.V.E.W.L.L.S.A.[am]}|PEPTIDE2{[CCCCCCCCCCCCCCCC(=O)[*:2]].[gGlu]}$PEPTIDE1,PEPTIDE2,17:R3-2:R2$$$V2.0; SMILES CCCCCCCCCCCCCCCC(=O)N[C@@H](CCC(=O)NCCCC[C@H](NC(=O)[C@H](CCCCN)NC(=O)[C@H](CCC(=O)O)NC(=O)[C@H](CC(C)C)NC(=O)[C@H](Cc1ccc(O)cc1)NC(=O)[C@@H](NC(=O)[C@H](CO)NC(=O)[C@H](Cc1ccc(O)cc1)NC(=O)[C@H](CC(=O)O)NC(=O)[C@H](CO)NC(=O)[C@@H](NC(=O)[C@H](Cc1ccccc1)NC(=O)[C@@H](NC(=O)CNC(=O)[C@H](CCC(N)=O)NC(=O)C(C)(C)NC(=O)[C@@H](N)Cc1ccc(O)cc1)[C@@H](C)O)[C@@H](C)O)[C@@H](C)CC)C(=O)N[C@@H](C)C(=O)N[C@@H](C)C(=O)N[C@@H](CCCCN)C(=O)N[C@@H](CCC(=O)O)C(=O)N[C@@H](Cc1ccccc1)C(=O)N[C@H](C(=O)N[C@@H](CCC(=O)O)C(=O)N[C@@H](Cc1c[nH]c2ccccc12)C(=O)N[C@@H](CC(C)C)C(=O)N[C@@H](CC(C)C)C(=O)N[C@@H](CO)C(=O)N[C@@H](C)C(N)=O)C(C)C)C(=O)O) [Compound 23]			110 pM	140 pM	140 pM	130 pM	110 pM	140 pM	
YAQGTFTSDYSKYLEKKAQKEFVEWLLSA (HELM PEPTIDE1{Y.[Aib].Q.G.T.F.T.S.D.Y.S.K.Y.L.E.K.K.A.Q.K.E.F.V.E.W.L.L.S.A.[am]}$$$$V2.0; SMILES CC(C)C[C@H](NC(=O)[C@H](CC(C)C)NC(=O)[C@H](Cc1c[nH]c2ccccc12)NC(=O)[C@H](CCC(=O)O)NC(=O)[C@@H](NC(=O)[C@H](Cc1ccccc1)NC(=O)[C@H](CCC(=O)O)NC(=O)[C@H](CCCCN)NC(=O)[C@H](CCC(N)=O)NC(=O)[C@H](C)NC(=O)[C@H](CCCCN)NC(=O)[C@H](CCCCN)NC(=O)[C@H](CCC(=O)O)NC(=O)[C@H](CC(C)C)NC(=O)[C@H](Cc1ccc(O)cc1)NC(=O)[C@H](CCCCN)NC(=O)[C@H](CO)NC(=O)[C@H](Cc1ccc(O)cc1)NC(=O)[C@H](CC(=O)O)NC(=O)[C@H](CO)NC(=O)[C@@H](NC(=O)[C@H](Cc1ccccc1)NC(=O)[C@@H](NC(=O)CNC(=O)[C@H](CCC(N)=O)NC(=O)C(C)(C)NC(=O)[C@@H](N)Cc1ccc(O)cc1)[C@@H](C)O)[C@@H](C)O)C(C)C)C(=O)N[C@@H](CO)C(=O)N[C@@H](C)C(N)=O) [Compound 22]			30 pM	760 pM	760 pM	180 pM	28 pM	760 pM	
YAQGTFTSDYSKYLEKKAAKEFVEWLLSA (HELM PEPTIDE1{Y.[Aib].Q.G.T.F.T.S.D.Y.S.K.Y.L.E.K.K.A.A.K.E.F.V.E.W.L.L.S.A.[am]}|PEPTIDE2{[CCCCCCCCCCCCCCCC(=O)[*:2]].[gGlu]}$PEPTIDE1,PEPTIDE2,12:R3-2:R2$$$V2.0; SMILES CCCCCCCCCCCCCCCC(=O)N[C@@H](CCC(=O)NCCCC[C@H](NC(=O)[C@H](CO)NC(=O)[C@H](Cc1ccc(O)cc1)NC(=O)[C@H](CC(=O)O)NC(=O)[C@H](CO)NC(=O)[C@@H](NC(=O)[C@H](Cc1ccccc1)NC(=O)[C@@H](NC(=O)CNC(=O)[C@H](CCC(N)=O)NC(=O)C(C)(C)NC(=O)[C@@H](N)Cc1ccc(O)cc1)[C@@H](C)O)[C@@H](C)O)C(=O)N[C@@H](Cc1ccc(O)cc1)C(=O)N[C@@H](CC(C)C)C(=O)N[C@@H](CCC(=O)O)C(=O)N[C@@H](CCCCN)C(=O)N[C@@H](CCCCN)C(=O)N[C@@H](C)C(=O)N[C@@H](C)C(=O)N[C@@H](CCCCN)C(=O)N[C@@H](CCC(=O)O)C(=O)N[C@@H](Cc1ccccc1)C(=O)N[C@H](C(=O)N[C@@H](CCC(=O)O)C(=O)N[C@@H](Cc1c[nH]c2ccccc12)C(=O)N[C@@H](CC(C)C)C(=O)N[C@@H](CC(C)C)C(=O)N[C@@H](CO)C(=O)N[C@@H](C)C(N)=O)C(C)C)C(=O)O) [Compound 25]			250 pM	280 pM	300 pM	250 pM	280 pM	300 pM	
YXQGTFTSDYSIALDKKAQRAFVNWLVAXKPSSGAPPPS (X at 2 and 29 = Aib; Lys 17 as K(Octadecanoyl-isoGlu-Peg3-Peg3); C-terminal amide (-NH2)) [Compound 42]	15 pM	32 pM							36 pM
YXQGTFTSDYSIALDKKAQRAFVNWLVAXKPSSGAPPPS (X at 2 and 29 = Aib; Lys 17 as K(Octadecanoyl-Dapa-Peg3-Peg3); C-terminal amide (-NH2)) [Compound 43]	9.8 pM	36 pM							14 pM
H-Y[Aib]QGTFTSDYSIYLEKK([Peg3-Peg3-γGlu-C18 diacid])AQRAFVEWLLRA-NH2 [Compound 51]	33 pM	1400 pM							26 pM
